According to patent publication US11434267B2, “Peptides having reduced toxicity that stimulate cholesterol efflux” (The Regents of the University of California, priority 2013, dated 2022):

Columns and labels:
Wistar rats = test: High-dose IV toxicity of ATI-5261 in rats (plasma ALT, AST, TG, cholesterol); assay type: in vivo, rat
Procedure: Peptides or peptidomeimetics of the invention can be evaluated for toxicity using known assays. Examples of such assays are illustrated in the Examples section. Toxicity is typically assayed in a rat, rabbit, mouse, monkey or dog model. In an illustrative assay such as that described in Example 1, a peptide is administered intravenously using a rabbit or rat model at doses of 3, 30, and 300 mg/kg and vehicle alone is also administered at 48 hour intervals for a total of four injections. Safety chemistry panels including plasma alanine aminotransferase (ALT), aspartate amino transferase (AST), and creatine kinase (CK) can then be determined in the blood. The presence of elevated levels of these enzymes in the blood compared to control normal values is indicative of toxicity. A peptide of the invention is typically considered to be non-toxic or to have little toxicity, when the results using the highest dose, 300 mg/kg in this illustrative assay, are equivalent (fall within the standard deviation) of the values measured for the control animals that received vehicle alone, or are no more than 2 or 3 times background obtained with vehicle alone. In some embodiments, a toxicity assay is performed where the toxicity of a peptide of the invention is compared to that to ATI-5261. […]
Cytotoxicity of an HDL mimetic peptide ATI-5261 at high doses was evaluated in rats and rabbits (FIG. 1). […]

cynomolgus monkeys = test: IV infusion toxicity of ATI-5261 in monkeys; assay type: in vivo, cynomolgus monkey
Procedure: Male (upper panel) and female (lower panel) cynomolgus monkeys were administered ATI-5261 at a fixed dose of 100 mg/kg by IV infusion (60 min) every 96 hours for a total of 4 injections. Blood was collected 24 h post infusion and levels of plasma ALT, AST, creatine kinase (CPK), and total and indirect bilirubin determined. Values are expressed as a fold-increase vs. pre-dose levels.

human plasma = test: Cholesterol efflux activity of human plasma treated with lipid-free peptide (J774 cells); assay type: cell-based; details: plasma + 300 μg/ml peptide 5 min 4° C., diluted to 1%, cAMP treated J774
Procedure: (FIG. 33). To test whether CS6253 exerts anti-atherogenic effects in a biological milieu, human plasma was exposed (5 min) to lipid-free peptide. Interactions of CS6253 with HDL in plasma and activity of plasma to stimulate cholesterol efflux was assessed; the latter using J774 macrophages labeled with [3H]cholesterol. Panel A—Cholesterol efflux activity of plasma treated with lipid-free peptides. Human plasma was incubated with 300 μg/ml peptides for 5 minutes (4° C.), diluted to 1% in serum-free RPMI-1640 culture medium and immediately added to [3H]cholesterol-labeled J774 cells. […] Panel B—Induction of preβ HDL upon treatment of human plasma with CS6253. Plasma was exposed to a small amount of peptide relative to endogenous apoA-I (1:10 mole ratio, respectively) and formation of preβ HDL assessed by 2D non-denaturing gradient gel electrophoresis (NDGGE) and western blot analysis. […] The results are consistent with the production of authentic preβ HDL particles composed entirely of endogenous apoA-I.
To test whether T6991-2 exerts anti-atherogenic effects in a biological milieu, human plasma was exposed (5 min) to lipid-free peptide. Interactions of T6991-2 with HDL in plasma and activity of plasma to stimulate cholesterol efflux was assessed using J774 macrophages labeled with [3H]cholesterol. Panel A—Cholesterol efflux activity of plasma treated with lipid-free peptides. […]

ATI-5261: HDL mimetic peptide, parent peptide with phenylalanine and arginine residues; toxic at high doses; used as positive control (EVRSKLEEWFAAFREFAEEFLARLKS)
plasma triglycerides and unesterified cholesterol (Wistar rats; IV): increased plasma triglycerides and cholesterol | cytotoxic response (plasma ALT, AST) (Wistar rats; IV 3, 30, 300 mg/kg at 48 h intervals, 4 injections): induced a cytotoxic response | cytotoxic response (ALT, AST, CPK, bilirubin) (cynomolgus monkeys; 100 mg/kg IV infusion (60 min) every 96 hours, 4 injections, 24 h post infusion): induced a cytotoxic response | plasma creatine kinase, fold-increase vs. pre-dose (cynomolgus monkeys; 100 mg/kg IV infusion, after the first infusion, male and female): marked increase | capacity of treated plasma to stimulate cholesterol efflux via ABCA1 (human plasma): possessed greater capacity to stimulate cholesterol efflux
